Experimental data taken from patent US20230272069A1 (INSTITUTE OF HEMATOLOGY AND BLOOD DISEASES HOSPITAL CHINESE …, published 2023).

B1: CD22 scFv-CD19 scFv-CD8α-4-1BB-CD3ζ CAR (other)
chain: DIELTQSPSSLAVSVGEKVTMSCKSSQSLLYSSNQKNYLAWYQQKPGQSPKLLIYWASTRESGVPDRFTGSGSGTDFTLTVSSVKAEDLAVYYCQQSYSYPFTFGSGTKLEIKRGGGGSGGGGSGGGGSQVKLQQSGPELVKPGASVKISCKASGYDFSISWMNWVRQRPGQGLEWIGRIYPGDGDSNYNGKFEGKATLTADKSSSTAYMQLSGLTSVDSAVYFCARTTTMIALYAMDYWGQGTTVTVSSEAAAKEAAAKEAAAKEAAAKEAAAKDIVLTQSPKFMSTSVGDRVSVTCKASQNVGTNVAWYQQKPGQSPKPLIYSATYRNSGVPDRFTGSGSGTDFTLTITNVQSKDLADYFCQQYNRYPYTSGGGTKLEIKRGGGGSGGGGSGGGGSQVQLQQSGAELVRPGSSVKISCKASGYAFSSYWMNWVKQRPGQGLEWIGQIYPGDGDTNYNGKFKGQATLTADKSSSTAYMQLSGLTSEDSAVYFCARKTISSVVDFYFDYWGQGTTLTVSSEFTTTPAPRPPTPAPTIASQPLSLRPEACRPAAGGAVHTRGLDFACDIYIWAPLAGTCGVLLLSLVITLYKRGRKKLLYIFKQPFMRPVQTTQEEDGCSCRFPEEEEGGCELRVKFSRSADAPAYQQGQNQLYNELNLGRREEYDVLDKRRGRDPEMGGKPRRKNPQEGLYNELQKDKMAEAYSEIGMKGERRRGKGHDGLYQGLSTATKDTYDALHMQALPPR
B2: CD19 VL-CD22 VL-CD22 VH-CD19 VH-CD8α-4-1BB-CD3ζ CAR (other)
chain: DIVLTQSPKFMSTSVGDRVSVTCKASQNVGTNVAWYQQKPGQSPKPLIYSATYRNSGVPDRFTGSGSGTDFTLTITNVQSKDLADYFCQQYNRYPYTSGGGTKLEIKRGGGGSDIELTQSPSSLAVSVGEKVTMSCKSSQSLLYSSNQKNYLAWYQQKPGQSPKLLIYWASTRESGVPDRFTGSGSGTDFTLTVSSVKAEDLAVYYCQQSYSYPFTFGSGTKLEIKRGSTSGSGKPGSGEGSTKGQVKLQQSGPELVKPGASVKISCKASGYDFSISWMNWVRQRPGQGLEWIGRIYPGDGDSNYNGKFEGKATLTADKSSSTAYMQLSGLTSVDSAVYFCARTTTMIALYAMDYWGQGTTVTVSSGGGGSQVQLQQSGAELVRPGSSVKISCKASGYAFSSYWMNWVKQRPGQGLEWIGQIYPGDGDTNYNGKFKGQATLTADKSSSTAYMQLSGLTSEDSAVYFCARKTISSVVDFYFDYWGQGTTLTVSSEFTTTPAPRPPTPAPTIASQPLSLRPEACRPAAGGAVHTRGLDFACDIYIWAPLAGTCGVLLLSLVITLYKRGRKKLLYIFKQPFMRPVQTTQEEDGCSCRFPEEEEGGCELRVKFSRSADAPAYQQGQNQLYNELNLGRREEYDVLDKRRGRDPEMGGKPRRKNPQEGLYNELQKDKMAEAYSEIGMKGERRRGKGHDGLYQGLSTATKDTYDALHMQALPPR

Columns and labels:
CD22 antigen molecule = target: T1, CD22 antigen molecule (human, UniProt P20273 20-847); assay: cell-based or functional assay
T1 sequence (looked up): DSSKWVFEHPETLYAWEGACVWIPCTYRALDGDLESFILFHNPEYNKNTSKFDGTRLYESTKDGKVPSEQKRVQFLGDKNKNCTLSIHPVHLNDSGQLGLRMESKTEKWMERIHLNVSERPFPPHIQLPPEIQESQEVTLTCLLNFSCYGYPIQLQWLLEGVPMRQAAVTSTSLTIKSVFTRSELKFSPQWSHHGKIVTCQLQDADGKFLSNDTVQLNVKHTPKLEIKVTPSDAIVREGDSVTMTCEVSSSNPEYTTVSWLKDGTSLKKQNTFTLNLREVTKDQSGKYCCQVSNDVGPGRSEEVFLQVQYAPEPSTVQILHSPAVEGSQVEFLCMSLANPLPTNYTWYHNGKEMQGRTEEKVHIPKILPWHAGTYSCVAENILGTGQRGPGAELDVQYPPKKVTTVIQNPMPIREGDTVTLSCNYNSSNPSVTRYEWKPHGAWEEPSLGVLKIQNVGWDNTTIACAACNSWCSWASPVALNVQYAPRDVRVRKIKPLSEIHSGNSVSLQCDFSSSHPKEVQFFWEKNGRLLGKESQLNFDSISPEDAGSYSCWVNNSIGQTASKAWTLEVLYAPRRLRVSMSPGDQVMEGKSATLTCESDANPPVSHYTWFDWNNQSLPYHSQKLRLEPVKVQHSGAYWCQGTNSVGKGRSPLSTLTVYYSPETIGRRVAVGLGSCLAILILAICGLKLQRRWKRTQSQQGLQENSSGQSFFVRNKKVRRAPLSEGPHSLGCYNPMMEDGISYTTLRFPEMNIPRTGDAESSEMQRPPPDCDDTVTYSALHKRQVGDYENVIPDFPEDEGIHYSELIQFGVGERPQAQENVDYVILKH

CD19 antigen molecule = target: T2, CD19 antigen molecule (human, UniProt P15391 20-556); assay: cell-based or functional assay
T2 sequence (looked up): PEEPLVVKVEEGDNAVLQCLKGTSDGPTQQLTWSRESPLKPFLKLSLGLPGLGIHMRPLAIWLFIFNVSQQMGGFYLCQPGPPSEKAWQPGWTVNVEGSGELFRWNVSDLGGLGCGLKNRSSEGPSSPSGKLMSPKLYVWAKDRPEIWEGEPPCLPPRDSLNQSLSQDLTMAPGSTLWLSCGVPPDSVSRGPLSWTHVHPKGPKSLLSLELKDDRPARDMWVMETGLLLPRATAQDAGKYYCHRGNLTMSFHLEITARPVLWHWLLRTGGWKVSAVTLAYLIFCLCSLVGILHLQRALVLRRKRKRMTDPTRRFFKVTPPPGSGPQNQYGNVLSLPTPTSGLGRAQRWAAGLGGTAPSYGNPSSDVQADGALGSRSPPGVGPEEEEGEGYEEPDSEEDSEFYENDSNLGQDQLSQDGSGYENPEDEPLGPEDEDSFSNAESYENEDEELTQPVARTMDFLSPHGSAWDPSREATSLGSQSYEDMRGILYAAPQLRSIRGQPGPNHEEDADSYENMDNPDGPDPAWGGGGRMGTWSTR

degranulation level (CD107a on GFP+ cells) after co-culture with MV4-11-CD22 cells, E:T 1:1, 4 h (CD22 antigen molecule) [%]	degranulation level (CD107a on GFP+ cells) after co-culture with MV4-11-CD19 cells, E:T 1:1, 4 h (CD19 antigen molecule) [%]	Binder
≥ 15	≥ 25	B1
≥ 15	≥ 25	B2
